B1: Tetraspanin-2 (Homo sapiens), O60636 (parent)
chain: MGRFRGGLRCIKYLLLGFNLLFWLAGSAVIAFGLWFRFGGAIKELSSEDKSPEYFYVGLYVLVGAGALMMAVGFFGCCGAMRESQCVLGSFFTCLLVIFAAEVTTGVFAFIGKGVAIRHVQTMYEEAYNDYLKDRGKGNGTLITFHSTFQCCGKESSEQVQPTCPKELLGHKNCIDEIETIISVKLQLIGIVGIGIAGLTIFGMIFSMVLCCAIRNSRDVI
partner: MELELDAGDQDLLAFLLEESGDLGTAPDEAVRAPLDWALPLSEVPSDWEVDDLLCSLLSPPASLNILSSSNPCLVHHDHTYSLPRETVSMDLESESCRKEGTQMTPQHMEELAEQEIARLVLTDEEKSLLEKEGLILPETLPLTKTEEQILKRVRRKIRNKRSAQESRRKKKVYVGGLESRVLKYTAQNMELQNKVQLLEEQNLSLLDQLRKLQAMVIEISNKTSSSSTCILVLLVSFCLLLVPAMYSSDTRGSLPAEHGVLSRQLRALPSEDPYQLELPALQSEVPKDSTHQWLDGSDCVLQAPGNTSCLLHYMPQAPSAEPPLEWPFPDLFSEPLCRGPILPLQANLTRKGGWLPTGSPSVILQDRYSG
B2: Serine/threonine-protein kinase PAK 5 (Homo sapiens), Q9P286 (parent)
chain: MFGKKKKKIEISGPSNFEHRVHTGFDPQEQKFTGLPQQWHSLLADTANRPKPMVDPSCITPIQLAPMKTIVRGNKPCKETSINGLLEDFDNISVTRSNSLRKESPPTPDQGASSHGPGHAEENGFITFSQYSSESDTTADYTTEKYREKSLYGDDLDPYYRGSHAAKQNGHVMKMKHGEAYYSEVKPLKSDFARFSADYHSHLDSLSKPSEYSDLKWEYQRASSSSPLDYSFQFTPSRTAGTSGCSKESLAYSESEWGPSLDDYDRRPKSSYLNQTSPQPTMRQRSRSGSGLQEPMMPFGASAFKTHPQGHSYNSYTYPRLSEPTMCIPKVDYDRAQMVLSPPLSGSDTYPRGPAKLPQSQSKSGYSSSSHQYPSGYHKATLYHHPSLQSSSQYISTASYLSSLSLSSSTYPPPSWGSSSDQQPSRVSHEQFRAALQLVVSPGDPREYLANFIKIGEGSTGIVCIATEKHTGKQVAVKKMDLRKQQRRELLFNEVVIMRDYHHDNVVDMYSSYLVGDELWVVMEFLEGGALTDIVTHTRMNEEQIATVCLSVLRALSYLHNQGVIHRDIKSDSILLTSDGRIKLSDFGFCAQVSKEVPKRKSLVGTPYWMAPEVISRLPYGTEVDIWSLGIMVIEMIDGEPPYFNEPPLQAMRRIRDSLPPRVKDLHKVSSVLRGFLDLMLVREPSQRATAQELLGHPFLKLAGPPSCIVPLMRQYRHH
partner: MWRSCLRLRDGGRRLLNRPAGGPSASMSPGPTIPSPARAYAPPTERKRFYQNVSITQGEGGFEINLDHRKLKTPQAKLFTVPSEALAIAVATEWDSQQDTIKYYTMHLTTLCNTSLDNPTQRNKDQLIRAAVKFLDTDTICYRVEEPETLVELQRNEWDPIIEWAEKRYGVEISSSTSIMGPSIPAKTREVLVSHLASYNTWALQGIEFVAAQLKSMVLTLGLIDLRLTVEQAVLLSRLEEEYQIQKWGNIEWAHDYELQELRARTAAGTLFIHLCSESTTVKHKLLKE
B3: Angiomotin (Homo sapiens), Q4VCS5 (parent)
chain: MRNSEEQPSGGTTVLQRLLQEQLRYGNPSENRSLLAIHQQATGNGPPFPSGSGNPGPQSDVLSPQDHHQQLVAHAARQEPQGQEIQSENLIMEKQLSPRMQNNEELPTYEEAKVQSQYFRGQQHASVGAAFYVTGVTNQKMRTEGRPSVQRLNPGKMHQDEGLRDLKQGHVRSLSERLMQMSLATSGVKAHPPVTSAPLSPPQPNDLYKNPTSSSEFYKAQGPLPNQHSLKGMEHRGPPPEYPFKGMPPQSVVCKPQEPGHFYSEHRLNQPGRTEGQLMRYQHPPEYGAARPAQDISLPLSARNSQPHSPTSSLTSGGSLPLLQSPPSTRLSPARHPLVPNQGDHSAHLPRPQQHFLPNQAHQGDHYRLSQPGLSQQQQQQQQQHHHHHHHQQQQQQQPQQQPGEAYSAMPRAQPSSASYQPVPADPFAIVSRAQQMVEILSDENRNLRQELEGCYEKVARLQKVETEIQRVSEAYENLVKSSSKREALEKAMRNKLEGEIRRMHDFNRDLRERLETANKQLAEKEYEGSEDTRKTISQLFAKNKESQREKEKLEAELATARSTNEDQRRHIEIRDQALSNAQAKVVKLEEELKKKQVYVDKVEKMQQALVQLQAACEKREQLEHRLRTRLERELESLRIQQRQGNCQPTNVSEYNAAALMELLREKEERILALEADMTKWEQKYLEENVMRHFALDAAATVAAQRDTTVISHSPNTSYDTALEARIQKEEEEILMANKRCLDMEGRIKTLHAQIIEKDAMIKVLQQRSRKEPSKTEQLSCMRPAKSLMSISNAGSGLLSHSSTLTGSPIMEEKRDDKSWKGSLGILLGGDYRAEYVPSTPSPVPPSTPLLSAHSKTGSRDCSTQTERGTESNKTAAVAPISVPAPVAAAATAAAITATAATITTTMVAAAPVAVAAAAAPAAAAAPSPATAAATAAAVSPAAAGQIPAAASVASAAAVAPSAAAAAAVQVAPAAPAPVPAPALVPVPAPAAAQASAPAQTQAPTSAPAVAPTPAPTPTPAVAQAEVPASPATGPGPHRLSIPSLTCNPDKTDGPVFHSNTLERKTPIQILGQEPDAEMVEYLI
partner: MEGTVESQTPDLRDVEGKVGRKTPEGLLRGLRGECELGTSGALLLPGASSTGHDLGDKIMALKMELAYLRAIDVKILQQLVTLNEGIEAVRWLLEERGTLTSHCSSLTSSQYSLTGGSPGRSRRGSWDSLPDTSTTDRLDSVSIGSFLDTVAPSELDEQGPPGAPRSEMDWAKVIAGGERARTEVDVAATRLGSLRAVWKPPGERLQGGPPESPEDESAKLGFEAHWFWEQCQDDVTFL
B4: PiggyBac transposable element-derived protein 1 (Homo sapiens), Q96JS3 (parent)
chain: MYEALPGPAPENEDGLVKVKEEDPTWEQVCNSQEGSSHTQEICRLRFRHFCYQEAHGPQEALAQLRELCHQWLRPEMHTKEQIMELLVLEQFLTILPKELQPCVKTYPLESGEEAVTVLENLETGSGDTGQQASVYIQGQDMHPMVAEYQGVSLECQSLQLLPGITTLKCEPPQRPQGNPQEVSGPVPHGSAHLQEKNPRDKAVVPVFNPVRSQTLVKTEEETAQAVAAEKWSHLSLTRRNLCGNSAQETVMSLSPMTEEIVTKDRLFKAKQETSEEMEQSGEASGKPNRECAPQIPCSTPIATERTVAHLNTLKDRHPGDLWARMHISSLEYAAGDITRKGRKKDKARVSELLQGLSFSGDSDVEKDNEPEIQPAQKKLKVSCFPEKSWTKRDIKPNFPSWSALDSGLLNLKSEKLNPVELFELFFDDETFNLIVNETNNYASQKNVSLEVTVQEMRCVFGVLLLSGFMRHPRREMYWEVSDTDQNLVRDAIRRDRFELIFSNLHFADNGHLDQKDKFTKLRPLIKQMNKNFLLYAPLEEYYCFDKSMCECFDSDQFLNGKPIRIGYKIWCGTTTQGYLVWFEPYQEESTMKVDEDPDLGLGGNLVMNFADVLLERGQYPYHLCFDSFFTSVKLLSALKKKGVRATGTIRENRTEKCPLMNVEHMKKMKRGYFDFRIEENNEIILCRWYGDGIISLCSNAVGIEPVNEVSCCDADNEEIPQISQPSIVKVYDECKEGVAKMDQIISKYRVRIRSKKWYSILVSYMIDVAMNNAWQLHRACNPGASLDPLDFRRFVAHFYLEHNAHLSD
partner: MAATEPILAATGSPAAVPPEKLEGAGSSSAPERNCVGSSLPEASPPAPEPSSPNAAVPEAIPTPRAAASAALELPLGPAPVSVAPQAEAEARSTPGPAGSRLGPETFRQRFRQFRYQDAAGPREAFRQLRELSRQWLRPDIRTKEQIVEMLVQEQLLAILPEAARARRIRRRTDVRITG
B5: Pachytene checkpoint protein 2 homolog (Homo sapiens), Q15645 (parent)
chain: MDEAVGDLKQALPCVAESPTVHVEVHQRGSSTAKKEDINLSVRKLLNRHNIVFGDYTWTEFDEPFLTRNVQSVSIIDTELKVKDSQPIDLSACTVALHIFQLNEDGPSSENLEEETENIIAANHWVLPAAEFHGLWDSLVYDVEVKSHLLDYVMTTLLFSDKNVNSNLITWNRVVLLHGPPGTGKTSLCKALAQKLTIRLSSRYRYGQLIEINSHSLFSKWFSESGKLVTKMFQKIQDLIDDKDALVFVLIDEVESLTAARNACRAGTEPSDAIRVVNAVLTQIDQIKRHSNVVILTTSNITEKIDVAFVDRADIKQYIGPPSAAAIFKIYLSCLEELMKCQIIYPRQQLLTLRELEMIGFIENNVSKLSLLLNDISRKSEGLSGRVLRKLPFLAHALYVQAPTVTIEGFLQALSLAVDKQFEERKKLAAYI
partner: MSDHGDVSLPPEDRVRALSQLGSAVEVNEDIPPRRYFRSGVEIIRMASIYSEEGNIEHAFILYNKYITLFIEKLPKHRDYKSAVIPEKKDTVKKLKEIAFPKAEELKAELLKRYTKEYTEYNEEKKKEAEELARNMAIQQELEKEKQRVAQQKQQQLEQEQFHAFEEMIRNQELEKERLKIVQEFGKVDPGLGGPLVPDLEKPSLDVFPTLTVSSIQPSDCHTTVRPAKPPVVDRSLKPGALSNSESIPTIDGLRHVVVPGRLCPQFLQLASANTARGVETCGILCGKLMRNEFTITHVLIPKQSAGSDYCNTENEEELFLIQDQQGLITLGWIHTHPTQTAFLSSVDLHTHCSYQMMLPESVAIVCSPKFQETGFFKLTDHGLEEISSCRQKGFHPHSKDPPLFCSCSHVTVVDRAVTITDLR
B6: Sodium channel modifier 1 (Homo sapiens), Q9BWG6 (parent)
chain: MSFKREGDDWSQLNVLKKRRVGDLLASYIPEDEALMLRDGRFACAICPHRPVLDTLAMLTAHRAGKKHLSSLQLFYGKKQPGKERKQNPKHQNELRREETKAEAPLLTQTRLITQSALHRAPHYNSCCRRKYRPEAPGPSVSLSPMPPSEVKLQSGKISREPEPAAGPQAEESATVSAPAPMSPTRRRALDHYLTLRSSGWIPDGRGRWVKDENVEFDSDEEEPPDLPLD

The variants in one assay derive from B1. The following applies: with creb3_human CREB3, O43889.
On to R118L, for which the “effect of a mutation on the interaction” value is given as “with no effect”.

The variants in the next assay derive from B2. The following applies: with atpf2_human ATPAF2, Q8N5M1.
R335P: the “effect of a mutation on the interaction” value is “with no effect”.

The variants in another assay derive from B3. The following applies: with lura1_human LURAP1, Q96LR2.
As for T899A, the “effect of a mutation on the interaction” value is recorded as “with no effect”.

Variants of B4 are the subject of a further assay. Conditions: with scnd1_human SCAND1, P57086.
With N398S, the “effect of a mutation on the interaction” value is recorded as “with no effect”. Regarding G244E, the “effect of a mutation on the interaction” value was “with no effect”. For P256L, the “effect of a mutation on the interaction” value was “with no effect”. For I678V, the “effect of a mutation on the interaction” value was “with no effect”. As for Q248E, the “effect of a mutation on the interaction” value was “with no effect”.

Variants of B5 are the subject of a further assay. Conditions: with stabp_human STAMBP.
In the case of G409E, the “effect of a mutation on the interaction” value is reported as “with no effect”.

In a further assay the parent is B6. Conditions: with hm20a_human HMG20A.
R206P: the “effect of a mutation on the interaction” value was “with no effect”.

In a further assay the parent is B6. The following applies: with trim1_human MID2, Q9UJV3.
Sequence of trim1_human MID2, Q9UJV3 (Q9UJV3 whole entry): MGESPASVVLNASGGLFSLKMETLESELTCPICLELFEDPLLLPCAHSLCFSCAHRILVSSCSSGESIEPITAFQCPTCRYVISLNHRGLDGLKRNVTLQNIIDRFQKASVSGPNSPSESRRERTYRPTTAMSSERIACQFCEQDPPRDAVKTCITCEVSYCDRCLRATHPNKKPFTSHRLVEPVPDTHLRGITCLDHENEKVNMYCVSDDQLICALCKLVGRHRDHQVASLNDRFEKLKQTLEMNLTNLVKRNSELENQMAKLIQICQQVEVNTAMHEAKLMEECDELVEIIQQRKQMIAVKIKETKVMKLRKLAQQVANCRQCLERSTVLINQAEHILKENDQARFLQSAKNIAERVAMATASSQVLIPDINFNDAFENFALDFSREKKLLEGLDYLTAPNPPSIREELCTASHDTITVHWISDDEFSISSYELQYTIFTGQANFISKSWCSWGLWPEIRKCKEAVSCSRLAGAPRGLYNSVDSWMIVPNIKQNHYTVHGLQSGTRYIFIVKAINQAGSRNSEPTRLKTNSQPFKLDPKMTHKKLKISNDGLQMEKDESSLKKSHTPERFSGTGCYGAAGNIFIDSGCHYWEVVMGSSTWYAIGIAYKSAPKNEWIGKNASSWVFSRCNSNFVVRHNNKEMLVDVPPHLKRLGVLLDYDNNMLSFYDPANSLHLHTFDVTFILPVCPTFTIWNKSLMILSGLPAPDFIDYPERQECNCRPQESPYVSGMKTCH
For the variant R206P, the “effect of a mutation on the interaction” value is recorded as “with no effect”.

The variants in a further assay derive from B6. The following applies: with pls1_human PLSCR1, O15162.
Sequence of pls1_human PLSCR1, O15162 (O15162 whole entry): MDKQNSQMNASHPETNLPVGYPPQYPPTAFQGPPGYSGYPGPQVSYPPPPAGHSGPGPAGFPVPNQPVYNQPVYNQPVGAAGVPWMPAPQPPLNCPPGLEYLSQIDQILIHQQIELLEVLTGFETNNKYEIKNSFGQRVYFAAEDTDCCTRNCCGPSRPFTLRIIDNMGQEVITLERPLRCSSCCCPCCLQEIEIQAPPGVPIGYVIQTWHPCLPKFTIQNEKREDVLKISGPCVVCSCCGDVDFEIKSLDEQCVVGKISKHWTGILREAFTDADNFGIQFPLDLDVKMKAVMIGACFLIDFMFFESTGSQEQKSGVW
As for R206P, the “effect of a mutation on the interaction” value is “with no effect”.

Variants of B6 are the subject of the next assay. Conditions: with inca1_human INCA1, Q0VD86.
Sequence of inca1_human INCA1, Q0VD86 (Q0VD86 whole entry): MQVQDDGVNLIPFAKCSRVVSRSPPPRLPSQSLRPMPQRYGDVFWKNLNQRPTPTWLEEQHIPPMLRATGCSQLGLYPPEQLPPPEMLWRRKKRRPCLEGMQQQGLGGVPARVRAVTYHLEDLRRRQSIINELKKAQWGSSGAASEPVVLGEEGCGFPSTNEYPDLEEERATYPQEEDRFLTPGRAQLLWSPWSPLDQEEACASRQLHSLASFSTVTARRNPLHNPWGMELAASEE
As for R206P, the “effect of a mutation on the interaction” value is listed as “with no effect”.

The values above are taken from IntAct's records for PubMed 31515488.
